The results in this text go back to IntAct's records for PubMed 15282298.

B1: Meiosis-inducing protein 1 (Saccharomyces cerevisiae), P21190 (parent)
chain: MQADMHGKLHAALEDGFFLFPFEQQQQPNIYYDTTTDQEDRPCFSFGSTISPRSWHFEKSDKIASSQLQNLVHTQPIHLINPQILFNEEFLNLENIDSQPISKETKTTKDCTMATGPERGKKSSESTRSSSLSSLFSNDESASTFHSSFNNHDNFQKSNRNGDDIDISDTIKYETNTNAQKDIKIFQENFEFNEFPYTQDFYPYTTNYTYSKPTNIHESINSKNTDSYSQYQDQFPPHTDNIHSFNNRHYSNHKSTNCNYYNNTSNNNNASDNVYEADPFIDEPQVPSYYYPLEIAFDVEKSPPPSLQKLNSKELEFLKKLNSKLSRYAAAYSFSSSNDQDYYDKVRFQEISYKFSKTYS
partner: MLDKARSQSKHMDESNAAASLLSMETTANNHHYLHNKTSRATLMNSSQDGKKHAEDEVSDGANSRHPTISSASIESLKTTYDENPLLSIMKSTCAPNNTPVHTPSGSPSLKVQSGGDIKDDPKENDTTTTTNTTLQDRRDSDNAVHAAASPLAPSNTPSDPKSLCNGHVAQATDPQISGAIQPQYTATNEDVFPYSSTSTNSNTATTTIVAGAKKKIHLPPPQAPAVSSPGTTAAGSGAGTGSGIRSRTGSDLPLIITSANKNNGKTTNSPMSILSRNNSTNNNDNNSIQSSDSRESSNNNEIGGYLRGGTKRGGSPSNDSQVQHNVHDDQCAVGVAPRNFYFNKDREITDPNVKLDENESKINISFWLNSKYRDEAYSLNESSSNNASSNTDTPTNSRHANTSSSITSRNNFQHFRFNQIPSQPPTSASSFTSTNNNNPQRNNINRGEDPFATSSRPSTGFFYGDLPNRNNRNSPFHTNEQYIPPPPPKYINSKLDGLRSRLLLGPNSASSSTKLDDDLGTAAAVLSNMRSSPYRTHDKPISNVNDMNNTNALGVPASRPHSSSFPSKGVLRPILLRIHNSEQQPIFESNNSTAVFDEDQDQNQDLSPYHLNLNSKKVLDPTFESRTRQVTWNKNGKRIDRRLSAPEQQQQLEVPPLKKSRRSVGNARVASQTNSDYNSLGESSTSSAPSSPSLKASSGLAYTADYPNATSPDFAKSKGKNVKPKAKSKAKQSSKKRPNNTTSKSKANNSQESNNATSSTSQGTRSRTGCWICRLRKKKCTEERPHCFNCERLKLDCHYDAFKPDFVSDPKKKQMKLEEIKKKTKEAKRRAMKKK

The assay covers variants of B1. To be noted: with ume6_yeast UME6, P39001.
As to S333A, the “effect of a mutation on the interaction” value is on record as “with no effect”.

As for Y359F, the “effect of a mutation on the interaction” value is “decreasing interaction strength”.

As to S337A, the “effect of a mutation on the interaction” value is “with no effect”.

As for S302D, the “effect of a mutation on the interaction” value is “with no effect”.

For the variant S302A, the “effect of a mutation on the interaction” value is “with no effect”.

As to S352A;S356A;S360A, the “effect of a mutation on the interaction” value is given as “with no effect”.

S306A: the “effect of a mutation on the interaction” value is recorded as “with no effect”.
